Source: the supplement of paper PMC12338614

B1: library; numbered along this chain (parent)
chain: MEVVDPQQLGMFTEGELMSVGMDTFIHRIDSTEVIYQPRRKRAKLIGKYLMGDLLGEGSYGKVKEVLDSETLCRRAVKILKKKKLRRIPNGEANVKKEIQLLRRLRHKNVIQLVDVLYNEEKQKMYMVMEYCVCGMQEMLDSVPEKRFPVCQAHGYFCQLIDGLEYLHSQGIVHKDIKPGNLLLTTGGTLKISDLGVAEALHPFAADDTCRTSQGSPAFQPPEIANGLDTFSGFKVDIWSAGVTLYNITTGLYPFEGDNIYKLFENIGKGSYAIPGDCGPPLSDLLKGMLEYEPAKRFSIRQIRQHSWFRKKHPPAEAPVPIPPSPDTKDRWRSMTVVPYLEDLHGADEDEDLFDIEDDIIYTQDFTVPGQVPEEEASHNGQRRGLPKAVCMNGTEAAQLSTKSRAEGRAPNPARKACSASSKIRRLSACKQQ

Variants of: B1
Test: STK11 functional score (HeLa growth suppression), rescaled enrichment; synonymous median = 1, nonsense median = 0 (normalised score)
Conditions: with HeLa; variant type: missense
Outline: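 The values are functional scores: wild-type-corrected log ratios of post- versus pre-selection abundance, rescaled to synonymous and nonsense medians, merged over codons and replicate transfections, and carrying bootstrapped error. They derive from codon-randomised (POPCode), codon-optimised STK11 libraries that Bxb1 integrated at an AAVS1 landing pad in HeLa, with three transfections for each of three regions. Sequencing of tiled gDNA amplicons ran on NextSeq, at ~2 million reads per tile.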

STK11 functional score, by site and new letter:
P280: D 1.45 | R 1.14 | E 1.69 | H 1.17 | G 1.46 | W 0.665 | S 1.16 | A 0.896 | K 1.67 | T 1.53 | L 1.32 | V 1.41 | I 1.36 | N 1.63 | M 1.04 | Q 1.36 | F 1
L282: A 0.846 | S 0.442 | V 0.86 | I 0.764 | P 0.541 | M 0.225 | D 1.26 | W 0.522 | G 0.43 | K 0.565 | R 0.128 | T 0.466 | Y 1.07 | H 0.737 | F 1.21
L286: H 0.00834 | F 0.971 | E 0.235 | A 0.163 | D -0.166 | G -0.0797
S283: D 1.29 | F 0.745 | A 1.24 | R 1.29 | Y 0.69 | G 1.19 | N 1.4 | P 1.15 | Q 1.51 | T 1.47 | E 0.826 | C 0.98 | W 0.819 | I 0.942 | M 1.28 | L 0.985 | V 1.17
G279: A 0.991 | H 1.6 | P 1.17 | S 1.25 | F 1.27 | Y 1.43 | C 0.657 | Q 1.32 | T 1.57 | R 0.829 | L 1.41 | V 0.88 | M 0.984 | W 1.06 | N 1.57 | I 1.41 | E 0.538
D284: P 0.0198 | H 1.14 | S 1.27 | V 0.716 | N 1.29 | W 0.576 | R 1.55 | F 0.579 | G 0.99 | L 0.935 | A 0.668 | E 1 | T 0.863 | M 1.19 | C 0.513 | I 1.14
P281: L 1.18 | N 1.66 | K 1.26 | W 0.551 | V 1.19 | D 1.45 | G 0.787 | E 1.3 | R 0.969 | A 0.84 | C 0.746 | Y 1.38 | F 1.23 | T 1.46 | S 0.965 | M 1.31 | I 1.46 | Q 1.51
L285: D -0.216 | A -0.0789 | V 0.239 | F 0.988 | R -0.201 | S -0.0113 | W -0.0646 | I 0.951 | E -0.0678 | T -0.111 | P -0.13 | H -0.443 | Q -0.0107 | G -0.0815 | Y -0.477
G276: D 1.33 | I 0.493 | T 1.16 | F 0.884 | E 1.57 | P 1.22 | A 1.41 | V 1.05 | W 1.36 | C 1.2 | R 1.35 | S 1.42 | L 1.11
D277: C 1.32 | V 1.23 | G 1.16 | R 1.34 | N 1.15 | F 1.35 | I 1.45 | S 0.886 | A 0.843 | M 0.115 | T 1.59 | W 0.81 | H 1.36 | L 0.92
C278: N 1.12 | I 0.402 | P 1.22 | K 1.57 | V 0.943 | Q 0.612 | T 1.22 | M 1.37 | F 0.811 | R 1.51 | E 1.66 | Y 0.449 | A 1.29 | G 1.08 | S 1.21 | D 1.03 | W 0.795 | H 1.06 | L 1.08
